This assay concerns the target Rad51 (S. cerevisiae) (UniProt P25454). Description: co-IP; Rad51 immunoprecipitated with anti-Rad51 antibody from yeast lysates (Rad51 overexpressed from a plasmid), IP fraction blotted for Hsp82 and Aha1; strains WT, hda1Δ, aha1Δ and hsp82 mutant strains (K27Q, K27R, K274Q, K274R, K178R); rad51Δ as negative control; blots quantified with Image J.
Sequence of UniProt P25454 (P25454 whole entry): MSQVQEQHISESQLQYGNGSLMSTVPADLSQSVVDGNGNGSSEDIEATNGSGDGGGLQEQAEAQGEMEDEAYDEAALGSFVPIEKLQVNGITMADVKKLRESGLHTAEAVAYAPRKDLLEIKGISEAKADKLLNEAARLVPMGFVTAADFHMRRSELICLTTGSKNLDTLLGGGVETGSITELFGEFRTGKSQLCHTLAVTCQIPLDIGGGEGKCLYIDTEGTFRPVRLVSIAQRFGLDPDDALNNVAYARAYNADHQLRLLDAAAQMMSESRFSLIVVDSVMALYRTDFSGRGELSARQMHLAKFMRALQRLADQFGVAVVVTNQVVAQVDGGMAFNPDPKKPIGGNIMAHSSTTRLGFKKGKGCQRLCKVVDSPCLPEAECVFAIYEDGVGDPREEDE

The substance “Hsp82 (WT) (from UniProt P02829 1-709) (natural protein)” showed a fold reduction of association in the aha1Δ strain against the WT strain of 2 fold and a fold reduction of association in the hda1Δ strain against the WT strain of 5 fold.
